In patent US20230079150A1, “METHODS FOR PREVENTION OR TREATMENT OF VIRUS-INDUCED ORGAN INJURY OR FAILURE WITH IL-22 DIMER” (priority 2020, published 2023):

System: C57BL/6 mice
Test: LPS acute lung injury mouse model: BAL inflammatory mediators (Milliplex cytokine panel)
Type: in vivo
Settings: day 4
Protocol: After approval from the Tulane University, Institutional Animal Care and Use Committee (protocol ID 607), equal numbers of male and female, 6-8 week old C57BL/6 mice (Charles River Laboratories, Cambridge, Mass.) were given acute lung injury (ALI) via intra-tracheally administered LPS. After obtaining appropriate depth of anesthesia using isoflurane, the high-dose LPS group (HDG) received 100 μg of LPS administered intra-tracheally. Approximately 30 minutes after LPS administration, 4 μg of F-652 was administered via tail vein injection (n=11), then compared to animals receiving sham injection (n=8) with phosphate-buffered saline (PBS). In the low-dose LPS group (LDG), 33.3 μg of LPS was administered intra-tracheally. F-652 was again administered at 30 minutes (n=9) and compared to sham injected animals (n=9). The Interleukin-22:Fc (F-652) protein is a recombinant fusion protein (F-652) (Evive Biotech, Shanghai, China) with two human IL-22 molecules linked to the Fc portion of human immunoglobulin G2, which extends the half-life of the molecule.
Euthanasia and bronchoalveolar lavage (BAL) was carried out on post-injury day 4. After obtaining appropriate levels of anesthesia with inhaled isoflurane, the trachea was cannulated using a 26 gauge needle and BAL was performed with three successive washes using 1 mL of PBS. Next, a small segment of the left lower lobe was removed and saved for RNA isolation. Finally, 1 cc of 4% paraformaldehyde was injected to the lung for fixation.
The BAL fluid was then centrifuged at 500×gravity for 5 minutes. Cells were obtained from the BAL after centrifuge and cell counts performed. Cells were then affixed to glass slides and stained with Wright's stain. To quantify protein in the BAL supernatant, a Bradford protein assay (Bio-Rad Laboratories) was performed. Protein was quantified by measuring absorbance at 595 nm on a BMG Labtech FLUOstar Optima plate reader. In addition, the BAL supernatant was used to measure pro-inflammatory cytokines using a Milliplex Mouse Cytokine/Chemokine Magnetic Bead Panel (Millipore Sigma). The 32 cytokines measured included Eotaxin, Granulocyte Colony-Stimulating Factor (G-CSF), Granulocyte-Monocyte Colony-Stimulating Factor (GM-CSF), Interferon-γ (IFN-γ), Interleukin-1α (IL-1α), IL-1, IL-2, IL-3, IL-4, IL-5, IL-6, IL-7, IL-9, IL-10, IL-12 (p40 segment), IL-12 (p70 segment), IL-13, IL-15, IL-17, Interferon-γ induced protein 10 (IP-10), keratinocyte chemoattractant (KC), leukemia inhibitory factor (LIF), lipopolysaccharide-induced CXC chemokine (LIX), monocyte chemoattractant protein-1 (MCP-1), macrophage colony-stimulating factor (M-CSF), monokine induced by gamma-interferon (MIG), MIP-1α, macrophage inflammatory protein-1β/CCL4 (MIP-1β), MIP-2, regulated upon activation, normal T-cell expressed and presumably secreted (RANTES), tumor necrosis factor-α (TNF-α), vascular endothelial growth factor (VEGF). Human IL-22 was measured using an IL-22 Human ELISA kit (ThermoFisher Scientific). Mouse IL-22 was measured using an IL-22 Mouse/Rat Quantikine ELISA kit (R&D Systems).

B1: F-652: recombinant IL-22 dimer consisting of two monomeric subunits each comprising a sequence shown in SEQ ID NO: 24 (protein)
chain 1: APISSHCRLDKSNFQQPYITNRTFMLAKEASLADNNTDVRLIGEKLFHGVSMSERCYLMKQVLNFTLEEVLFPQSDRFQPYMQEVVPFLARLSNRLSTCHIEGDDLHIQRNVQKLKDTVKKLGESGEIKAIGELDLLFMSLRNACIGSGGGSGGGGSGGGGSVECPPCPAPPVAGPSVFLFPPKPKDTLMISRTPEVTCVVVDVSHEDPEVQFNWYVDGVEVHNAKTKPREEQFNSTFRVVSVLTVVHQDWLNGKEYKCKVSNKGLPASIEKTISKTKGQPREPQVYTLPPSREEMTKNQVSLTCLVKGFYPSDIAVEWESNGQPENNYKTTPPMLDSDGSFFLYSKLTVDKSRWQQGNVFSCSVMHEALHNHYTQKSLSLSPGK
chain 2: B1 chain 1
modifications: homodimer
C-X-C Motif Chemokine 5 (LIX) in BAL (high dose LPS, F-652 4 μg i.v.): 0.00 ± 0.00 pg/mL | Eotaxin in BAL (high dose LPS, F-652 4 μg i.v.): 4.63 ± 2.43 pg/mL | Granulocyte-Macrophage Colony-Stimulating Factor in BAL (high dose LPS, F-652 4 μg i.v.): 0.00 ± 0.00 pg/mL | Interferon-γ in BAL (high dose LPS, F-652 4 μg i.v.): 8.08 ± 2.18 pg/mL | Interferon-γ-Induced Protein-10 in BAL (high dose LPS, F-652 4 μg i.v.): 118.40 ± 43.72 pg/mL | Interleukin-1α in BAL (high dose LPS, F-652 4 μg i.v.): 69.39 ± 5.91 pg/mL | Interleukin-1β in BAL (high dose LPS, F-652 4 μg i.v.): 3.48 ± 1.25 pg/mL | Interleukin-2 in BAL (high dose LPS, F-652 4 μg i.v.): 7.33 ± 0.83 pg/mL | Interleukin-3 in BAL (high dose LPS, F-652 4 μg i.v.): 1.07 ± 0.02 pg/mL | Interleukin-4 in BAL (high dose LPS, F-652 4 μg i.v.): 1.09 ± 0.09 pg/mL | Interleukin-5 in BAL (high dose LPS, F-652 4 μg i.v.): 7.86 ± 1.14 pg/mL | Interleukin-7 in BAL (high dose LPS, F-652 4 μg i.v.): 1.75 ± 0.18 pg/mL | Interleukin-9 in BAL (high dose LPS, F-652 4 μg i.v.): 311.8 ± 38.17 pg/mL | Interleukin-12 (p40) in BAL (high dose LPS, F-652 4 μg i.v.): 7.13 ± 1.89 pg/mL | Interleukin-12 (p70) in BAL (high dose LPS, F-652 4 μg i.v.): 1.95 ± 1.00 pg/mL | Interleukin-13 in BAL (high dose LPS, F-652 4 μg i.v.): 10.56 ± 1.49 pg/mL | Interleukin-15 in BAL (high dose LPS, F-652 4 μg i.v.): 6.10 ± 1.02 pg/mL | Interleukin-17 in BAL (high dose LPS, F-652 4 μg i.v.): 2.28 ± 0.56 pg/mL | Keratinocyte Chemoattractant/Growth Regulated Oncogene in BAL (high dose LPS, F-652 4 μg i.v.): 19.54 ± 3.08 pg/mL | Macrophage Colony-Stimulating Factor in BAL (high dose LPS, F-652 4 μg i.v.): 2.89 ± 1.02 pg/mL | Macrophage Inflammatory Protein-1α in BAL (high dose LPS, F-652 4 μg i.v.): 45.99 ± 7.56 pg/mL | Macrophage Inflammatory Protein-1β in BAL (high dose LPS, F-652 4 μg i.v.): 19.42 ± 7.63 pg/mL | Macrophage Inflammatory Protein-2 in BAL (high dose LPS, F-652 4 μg i.v.): 28.63 ± 5.43 pg/mL | Monocyte Chemoattractant Protein in BAL (high dose LPS, F-652 4 μg i.v.): 14.66 ± 7.16 pg/mL | Monocyte Induced by Interferon-γ in BAL (high dose LPS, F-652 4 μg i.v.): 100.60 ± 35.47 pg/mL | Vascular Endothelial Growth Factor in BAL (high dose LPS, F-652 4 μg i.v.): 12.18 ± 3.03 pg/mL | Interleukin-10 level in BAL fluid (high-dose LPS, F-652 4 μg tail vein, sham 4.05): 22.10 pg/mL | TNF-α level in BAL fluid (high-dose LPS, F-652 4 μg tail vein, sham 25.41): 5.87 pg/mL | IL-6 level in BAL fluid (high-dose LPS, F-652 4 μg tail vein, sham 527.1): 110.6 pg/mL | G-CSF level in BAL fluid (high-dose LPS, F-652 4 μg tail vein, sham 659.6): 95.14 | C-X-C Motif Chemokine 5 (LIX) in BAL (low dose LPS, F-652 4 μg i.v.): 9.27 ± 6.04 pg/mL | Eotaxin in BAL (low dose LPS, F-652 4 μg i.v.): 2.59 ± 1.93 pg/mL | Granulocyte Colony-Stimulating Factor in BAL (low dose LPS, F-652 4 μg i.v.): 23.49 ± 9.15 pg/mL | Granulocyte-Macrophage Colony-Stimulating Factor in BAL (low dose LPS, F-652 4 μg i.v.): 0.00 ± 0.00 pg/mL | Interferon-γ in BAL (low dose LPS, F-652 4 μg i.v.): 1.15 ± 0.42 pg/mL | Interferon-γ-Induced Protein-10 in BAL (low dose LPS, F-652 4 μg i.v.): 12.94 ± 3.54 pg/mL | Interleukin-1α in BAL (low dose LPS, F-652 4 μg i.v.): 61.31 ± 12.36 pg/mL | Interleukin-1β in BAL (low dose LPS, F-652 4 μg i.v.): 0.01 ± 0.01 pg/mL | Interleukin-2 in BAL (low dose LPS, F-652 4 μg i.v.): 6.77 ± 1.75 pg/mL | Interleukin-3 in BAL (low dose LPS, F-652 4 μg i.v.): 0.00 ± 0.00 pg/mL | Interleukin-4 in BAL (low dose LPS, F-652 4 μg i.v.): 0.00 ± 0.00 pg/mL | Interleukin-5 in BAL (low dose LPS, F-652 4 μg i.v.): 0.00 ± 0.00 pg/mL | Interleukin-6 in BAL (low dose LPS, F-652 4 μg i.v.): 0.95 ± 0.62 pg/mL | Interleukin-7 in BAL (low dose LPS, F-652 4 μg i.v.): 0.00 ± 0.00 pg/mL | Interleukin-9 in BAL (low dose LPS, F-652 4 μg i.v.): 154.50 ± 37.46 pg/mL | Interleukin-10 in BAL (low dose LPS, F-652 4 μg i.v.): 19.91 ± 6.56 pg/mL | Interleukin-12 (p40) in BAL (low dose LPS, F-652 4 μg i.v.): 6.87 ± 1.88 pg/mL | Interleukin-12 (p70) in BAL (low dose LPS, F-652 4 μg i.v.): 0.00 ± 0.00 pg/mL | Interleukin-13 in BAL (low dose LPS, F-652 4 μg i.v.): 2.69 ± 0.93 pg/mL | Interleukin-15 in BAL (low dose LPS, F-652 4 μg i.v.): 0.00 ± 0.00 pg/mL | Interleukin-17 in BAL (low dose LPS, F-652 4 μg i.v.): 0.40 ± 0.06 pg/mL | Keratinocyte Chemoattractant/Growth Regulated Oncogene in BAL (low dose LPS, F-652 4 μg i.v.): 9.11 ± 2.76 pg/mL | Macrophage Colony-Stimulating Factor in BAL (low dose LPS, F-652 4 μg i.v.): 0.00 ± 0.00 pg/mL | Macrophage Inflammatory Protein-1α in BAL (low dose LPS, F-652 4 μg i.v.): 15.62 ± 2.03 pg/mL | Macrophage Inflammatory Protein-1β in BAL (low dose LPS, F-652 4 μg i.v.): 0.00 ± 0.00 pg/mL | Macrophage Inflammatory Protein-2 in BAL (low dose LPS, F-652 4 μg i.v.): 20.45 ± 10.88 pg/mL | Monocyte Chemoattractant Protein in BAL (low dose LPS, F-652 4 μg i.v.): 0.00 ± 0.00 pg/mL | Monocyte Induced by Interferon-γ in BAL (low dose LPS, F-652 4 μg i.v.): 10.52 ± 4.73 pg/mL | Tumor Necrosis Factor-α in BAL (low dose LPS, F-652 4 μg i.v.): 3.01 ± 1.79 pg/mL | Vascular Endothelial Growth Factor in BAL (low dose LPS, F-652 4 μg i.v.): 3.01 ± 0.50 pg/mL
